Data taken from PMC10099707.

Molecular target: HDAC4 (mouse (endogenous in hippocampal tissue)) (UniProt Q6NZM9)
Assay: co-IP

UniProt Q6NZM9, sequence (Q6NZM9 whole entry): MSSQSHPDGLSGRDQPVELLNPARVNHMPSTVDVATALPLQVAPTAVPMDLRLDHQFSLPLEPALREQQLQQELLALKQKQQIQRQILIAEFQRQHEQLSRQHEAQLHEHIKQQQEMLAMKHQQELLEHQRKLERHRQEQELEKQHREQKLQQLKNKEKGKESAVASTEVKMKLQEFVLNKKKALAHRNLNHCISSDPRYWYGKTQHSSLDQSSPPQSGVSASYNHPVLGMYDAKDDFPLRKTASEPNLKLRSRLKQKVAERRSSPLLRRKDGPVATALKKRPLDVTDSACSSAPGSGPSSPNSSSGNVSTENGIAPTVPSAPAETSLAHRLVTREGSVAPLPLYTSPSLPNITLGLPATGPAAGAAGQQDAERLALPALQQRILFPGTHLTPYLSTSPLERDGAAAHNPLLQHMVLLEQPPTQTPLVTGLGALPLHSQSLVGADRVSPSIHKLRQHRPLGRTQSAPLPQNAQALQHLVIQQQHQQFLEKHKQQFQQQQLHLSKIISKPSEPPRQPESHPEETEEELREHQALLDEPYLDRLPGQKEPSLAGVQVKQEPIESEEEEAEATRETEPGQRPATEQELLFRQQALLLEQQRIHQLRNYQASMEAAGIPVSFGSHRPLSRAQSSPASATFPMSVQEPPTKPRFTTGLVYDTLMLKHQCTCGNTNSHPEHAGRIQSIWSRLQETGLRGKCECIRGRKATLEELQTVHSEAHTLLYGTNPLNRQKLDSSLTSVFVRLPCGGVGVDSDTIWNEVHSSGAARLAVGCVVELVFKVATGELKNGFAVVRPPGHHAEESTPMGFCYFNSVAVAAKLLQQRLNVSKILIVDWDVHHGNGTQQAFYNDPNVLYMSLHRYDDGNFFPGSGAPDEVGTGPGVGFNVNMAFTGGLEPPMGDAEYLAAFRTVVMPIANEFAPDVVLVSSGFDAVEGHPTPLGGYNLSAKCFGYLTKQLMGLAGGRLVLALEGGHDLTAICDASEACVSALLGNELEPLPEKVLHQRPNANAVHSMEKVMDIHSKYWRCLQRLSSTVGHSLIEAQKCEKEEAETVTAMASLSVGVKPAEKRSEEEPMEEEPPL

fold change AD vs WT of the co-IP band ratio CaMKII/HDAC4 (fold (AD vs WT)): 0.61
Substance: Ca2+/calmodulin‐dependent protein kinase II (CaMKII) (from UniProt P11798 1-478) (enzyme)
